This series concerns C=CC/C(=N/OS(=O)(=O)O)S[C@@H]1O[C@H](CO)[C@@H](O)[C@H](O)[C@H]1O. The experiment in a line: Myrosinase activity assay (glucose release from sinigrin hydrolysis), TGG1. The series is classed as biochemical, Arabidopsis thaliana. On the procedure: Screening for improved β-thioglucosidase. The activity and stability of myrosinase, a β-thioglucosidase that hydrolyzes glucosinolate to sulforaphane, varies at differing pH and temperature; in a preferred embodiment the selected enzyme needs to function under physiological colorectal conditions. The healthy colon pH averages 6.6, while it is 7.0 and 6.7 in patients with adenoma and carcinoma, respectively. In addition, the temperature of the human intestinal tract ranges from 36° C. to 40° C. depending on the individual's metabolic state. In the illustrative example five plant-derived myrosinase orthologues with minimal glycosylation sites and the absence of the co-factor-binding sites using the BLAST search and the Enzyme Function Initiative-Enzyme Similarity Tool (EFI-EST), are compared to the well-characterized myrosinases from Brevicoryne brassicae (BMY1) and Arabidopsis thaliana (TGG1) (FIG. 2a and FIG. 7).
Gene cloning, protein expression and purification. Myrosinase genes are optimized for E. coli expression and cloned into the pET28b expression vector. The plasmids are transformed into E. coli BL21 (DE3) cultured in lysogeny broth (LB) (BD, Le Pont de Claix, France) at 37° C., 225 rpm to OD600 0.6 followed by 0.5 mM isopropyl β-D-1-thiogalactopyranoside (IPTG) induction at 16° C., 180 rpm for 16 hours. Cells are harvested, resuspended in lysis buffer (50 mM Tris-Cl, 300 mM NaCl, 10% glycerol, 1 mM dithiothreitol [DTT], pH 8.0) and lysed using Emulsiflex C-3 (Avestin). Expressed myrosinases are purified by IMAC Ni-NTA purification followed by Hi-Load Superdex 200 size exclusion column chromatography (GE, Uppsala, Sweden). The purified protein is concentrated and stored at −80° C. Pilot scale protein purification and enzymatic assay is conducted.
Myrosinase screening assay. The enzymatic reaction is measured for the release of glucose resulting from sinigrin hydrolysis. The reaction is conducted in sodium phosphate-buffered solution supplied in the Amplex® Red Glucose/Glucose Oxidase Assay Kit (Thermo Fisher Scientific, Geel, Belgium). The reaction buffer is prepared at different pH values (6.0, 6.5, 7.4 and 8.0) and at different reaction temperatures (34° C., 37° C., and 40° C.). The reaction is prepared using 0.1 μM purified myrosinase added to 1× Amplex® Red Glucose Assay reaction mixture and was kick-started with the corresponding concentration of sinigrin. The reaction can be measured at 560 nm absorbance and fluorescence (λex=540 nm, λem=590 nm) using a Synergy H1 Multi-Mode microtiter plate reader (BioTek®, Winooski, USA). The reaction initial velocity (VO) is determined and fitted into a Michaelis-Menten curve. Vmax and KM are determined by fitting into the Michaelis-Menten equation (Eq. 1) using GraphPad Prism Software. ^v=Vmax*[Sinigrin]/(KM+[Sinigrin]) (Eq.1)
Table S1|Myrosinase activity assay screening under various pH and temperature conditions (n=3 independent experiments, each measurement performed in triplicates; mean[…].).

As to “Arabidopsis thaliana myrosinase TGG1 (Arabidopsis thaliana)”, the Km is, setting by setting: (other: pH 6.0, 37° C., pH 6.0, 37.0 °C) 361 ± 11 µM; (other: pH 6.5, 37° C., pH 6.5, 37.0 °C) 198 ± 20 µM; (other: pH 7.4, 34° C., pH 7.4, 34.0 °C) 78 ± 8 µM; (other: pH 7.4, 37° C., pH 7.4, 37.0 °C) 71 ± 3 µM; (other: pH 7.4, 40° C., pH 7.4, 40.0 °C) 88 ± 9 µM; (other: pH 8.0, 37° C., pH 8.0, 37.0 °C) 137 ± 69 µM.

What is called Km is the concentration of substrate that gives half-maximal velocity.

The record behind these values is patent US11925667B2, “Engineered therapeutic probiotic system and method” (priority 2018, dated 2024).
